Results taken from PMC10076222, “From primordial clocks to circadian oscillators” (Nature, 2023).
One block for each molecule: values may come before it.

Experiments:
[1] = target: His6-MBP-TEV-KaiBRS (KaiBRS-tag) (Rhodobacter sphaeroides strain KD131/KCTC 12085); assay: pull-down; as a10 but with 4 mM ATP and an ATP-recycling system instead of ADP
[2] = target: KaiCRS-S413E/S414E (phosphomimetic mutant) (Rhodobacter sphaeroides strain KD131/KCTC 12085); assay: cryo-EM structure; KaiCRS-S413E/S414E:KaiBRS complex, 20 mM MOPS pH 6.50, 50 mM NaCl, 2 mM TCEP, 10 mM MgCl2, 2 mM ATP; ADP in the CI domain
[3] = target: KaiC from Rhodobacter sphaeroides KD131, wild type, full length (KaiCRS) (Rhodobacter sphaeroides strain KD131/KCTC 12085)
[4] = target: KaiCRS-S413E/S414E (phosphomimetic mutant) (Rhodobacter sphaeroides strain KD131/KCTC 12085); assay: fluorescence polarisation; anisotropy competition, 30 °C: KaiBRS-6IAF (0.2-0.4 μM) with KaiCRS (1 μM), unlabelled KaiBRS 0-50 μM, 20 mM MOPS pH 6.5, 50 mM NaCl, 2 mM TCEP, 10 mM MgCl2, 4 mM ADP; 4 h or 12 h; Kd calculated from IC50
[5] = target: KaiC from Rhodobacter sphaeroides KD131, wild type, full length (KaiCRS) (Rhodobacter sphaeroides strain KD131/KCTC 12085); assay: as above
[6] = target: KaiC from Rhodobacter sphaeroides KD131, wild type, full length (KaiCRS) (Rhodobacter sphaeroides strain KD131/KCTC 12085); remark: listed apart in the source
[7] = target: KaiC from Rhodobacter sphaeroides KD131, wild type, full length (KaiCRS) (Rhodobacter sphaeroides strain KD131/KCTC 12085); assay: crystal structure; KaiCRS, sitting drop at 291 K; protein 10 mg/ml in 20 mM MOPS pH 6.5, 50 mM NaCl, 2 mM TCEP, 5 mM MgCl2, 3 mM ATP, 1 mM AMPPCP; 200 mM MgCl2, 100 mM HEPES pH 7.5, 30% PEG 400
[8] = target: KaiC from Rhodobacter sphaeroides KD131, wild type, full length (KaiCRS) (Rhodobacter sphaeroides strain KD131/KCTC 12085); assay: SEC; Superdex-200 10/300 GL, unphosphorylated KaiCRS (40 μM) bound with ADP, buffer with 0.1 mM ADP instead of ATP, 4 °C
[9] = target: KaiC from Rhodobacter sphaeroides KD131, wild type, full length (KaiCRS) (Rhodobacter sphaeroides strain KD131/KCTC 12085); assay: SEC; Superdex-200 10/300 GL, about 40-80 μM protein, 20 mM MOPS pH 6.5, 50 mM NaCl, 2 mM TCEP, 10 mM MgCl2, 1 mM ATP, 4 °C
[10] = target: KaiC from Rhodobacter sphaeroides KD131, wild type, full length (KaiCRS) (Rhodobacter sphaeroides strain KD131/KCTC 12085); assay: AUC; sedimentation velocity, 30,000 r.p.m., 20 °C, 295 nm; 100 μM protein, 1 mM ATP (KaiCRS forms: 20 mM MOPS pH 6.5, 50 mM NaCl; KaiCSE: 20 mM MOPS pH 8.0, 150 mM NaCl)
[11] = target: KaiCRS-S413E/S414E (phosphomimetic mutant) (Rhodobacter sphaeroides strain KD131/KCTC 12085); assay: cryo-EM structure; KaiCRS-S413E/S414E alone, 4.3 mg/ml in 20 mM MOPS pH 6.50, 50 mM NaCl, 2 mM TCEP, 10 mM MgCl2, 2 mM ATP; hexamers processed with C6, dodecamer with D6 symmetry
[12] = target: KaiCRS-CI domain (KaiCIRS) (Rhodobacter sphaeroides strain KD131/KCTC 12085); assay: SEC; Superdex-200 10/300 GL, about 40-80 μM protein, 20 mM MOPS pH 6.5, 50 mM NaCl, 2 mM TCEP, 10 mM MgCl2, 1 mM ATP, 4 °C
[13] = target: KaiCRS-Δcoil (KaiCRS truncated at residue Glu490) (Rhodobacter sphaeroides strain KD131/KCTC 12085); assay: as above
[14] = target: KaiCRS-Δcoil (KaiCRS truncated at residue Glu490) (Rhodobacter sphaeroides strain KD131/KCTC 12085); assay: crystal structure; KaiCRS-Δcoil, sitting drop at 291 K; 200 mM ammonium acetate, 100 mM sodium citrate pH 5.6, 30% PEG 4,000; space group C2221, three monomers in the asymmetric unit, hexamer by PISA
[15] = target: KaiCRS-Δcoil (KaiCRS truncated at residue Glu490) (Rhodobacter sphaeroides strain KD131/KCTC 12085); assay: AUC; sedimentation velocity, 30,000 r.p.m., 20 °C, 295 nm; 100 μM protein, 1 mM ATP (KaiCRS forms: 20 mM MOPS pH 6.5, 50 mM NaCl; KaiCSE: 20 mM MOPS pH 8.0, 150 mM NaCl)
KaiCRS-Δcoil = target: T1, KaiCRS-Δcoil (Cereibacter sphaeroides, UniProt A0AAX7FLD9, E415S/E416S); assay: X-ray crystal structure; assay type: binding; conditions: ADP in all active sites
T1 construct: C-terminal coiled-coil truncated at Glu490 (stop codon introduced at position 490)

KaiCRS = KaiCRS (Cereibacter sphaeroides, UniProt A0AAX7FLD9, E415S/E416S); assay: […] phosphoryl transfer from phosphoserine to ADP, TLC autoradiography; assay type: biochemical; conditions: 4 mM ADP, ATP synthase reaction in CII domain, Ser413, pH 6.5, 30 °C
[16] = target: the molecule itself; assay: SEC; Superdex-75 10/300 GL, KaiBRS 0.5 mM, 20 mM MOPS pH 6.5, 50 mM NaCl, 2 mM TCEP, 4 °C
[17] = target: the molecule itself; assay: AUC; sedimentation velocity, 30,000 r.p.m., 20 °C, 295 nm; 100 μM protein, 1 mM ATP (KaiCRS forms: 20 mM MOPS pH 6.5, 50 mM NaCl; KaiCSE: 20 mM MOPS pH 8.0, 150 mM NaCl)

Chain of His6-MBP-TEV-KaiBRS (KaiBRS-tag) (Rhodobacter sphaeroides strain KD131/KCTC 12085) (main, as listed by the source): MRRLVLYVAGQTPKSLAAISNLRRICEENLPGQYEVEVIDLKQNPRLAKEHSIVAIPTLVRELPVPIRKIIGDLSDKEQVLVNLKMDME
T1 sequence (A0AAX7FLD9 entry or part of it E415S/E416S): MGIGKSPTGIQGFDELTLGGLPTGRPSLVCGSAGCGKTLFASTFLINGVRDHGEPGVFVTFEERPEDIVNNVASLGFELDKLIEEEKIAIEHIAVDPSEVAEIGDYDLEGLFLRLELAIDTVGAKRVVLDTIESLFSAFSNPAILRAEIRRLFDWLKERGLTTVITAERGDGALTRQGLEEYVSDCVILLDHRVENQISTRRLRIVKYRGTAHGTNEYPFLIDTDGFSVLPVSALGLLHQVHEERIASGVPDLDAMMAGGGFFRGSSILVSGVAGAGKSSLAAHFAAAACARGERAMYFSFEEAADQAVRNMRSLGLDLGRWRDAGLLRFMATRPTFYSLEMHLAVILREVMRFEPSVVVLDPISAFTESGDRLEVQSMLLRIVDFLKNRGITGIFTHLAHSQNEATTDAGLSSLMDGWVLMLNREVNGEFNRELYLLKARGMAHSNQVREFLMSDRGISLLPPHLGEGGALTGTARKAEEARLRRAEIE
Chain of KaiCRS (A0AAX7FLD9 entry or part of it E415S/E416S): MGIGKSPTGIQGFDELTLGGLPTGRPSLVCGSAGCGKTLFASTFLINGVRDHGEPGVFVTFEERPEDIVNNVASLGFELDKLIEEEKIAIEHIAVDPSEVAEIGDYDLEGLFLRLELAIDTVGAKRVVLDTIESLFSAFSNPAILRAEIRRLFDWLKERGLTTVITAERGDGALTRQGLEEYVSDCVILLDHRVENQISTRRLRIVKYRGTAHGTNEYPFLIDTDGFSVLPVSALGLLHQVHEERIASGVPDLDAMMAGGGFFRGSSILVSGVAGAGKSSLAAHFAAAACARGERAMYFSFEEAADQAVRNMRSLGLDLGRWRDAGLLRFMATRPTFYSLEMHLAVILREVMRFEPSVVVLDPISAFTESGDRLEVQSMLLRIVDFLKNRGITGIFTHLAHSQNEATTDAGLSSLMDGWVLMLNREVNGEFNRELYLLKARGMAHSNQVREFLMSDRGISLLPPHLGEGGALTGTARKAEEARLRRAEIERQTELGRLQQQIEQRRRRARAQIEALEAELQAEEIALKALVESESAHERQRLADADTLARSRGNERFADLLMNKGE

percent co-eluted [1]: < 30%
Molecule: KaiCRS-S413A/S414A (enzyme)

stoichiometry N (KaiBRS per KaiCRS dodecamer) [2]: 12
ATPase activity of KaiCRS (3.5 μM) with KaiBRS (3.5 μM) in 4 mM ATP, ADP by HPLC, 20-35 °C (with KaiBRS 176, 1052, 1557, 2584; alone 108, 163, 208, 300 day^-1 KaiC^-1) [3]: 2580 ATP/day/KaiC
Kd [4]: 790 nM
Kd [5]: 420 nM
fold increase in ATPase activity of KaiCRS with KaiBRS at 30 °C [6]: 7.5 fold
Molecule: KaiB from Rhodobacter sphaeroides KD131 (KaiBRS), tag cleaved (natural protein)

stoichiometry N [7]: 12
stoichiometry N [8]: 12
stoichiometry N [9]: 12
stoichiometry N [10]: 12
Molecule: KaiC from Rhodobacter sphaeroides KD131, wild type, full length (KaiCRS) (enzyme)

stoichiometry N [2]: 12
percent co-eluted [1]: < 30%
stoichiometry N [11]: 12
Molecule: KaiCRS-S413E/S414E (phosphomimetic mutant) (enzyme)

percent co-eluted [1]: < 30%
Molecule: phosphorylated wild-type KaiCRS (ATP-bound, with ATP-recycling system) (enzyme)

stoichiometry N [12]: 6
Molecule: KaiCRS-CI domain (KaiCIRS) (domain or fragment)

stoichiometry N [13]: 6
stoichiometry N [14]: 6
stoichiometry N [15]: 6
Molecule: KaiCRS-Δcoil (KaiCRS truncated at residue Glu490) (domain or fragment)

Molecule: Nc1ncnc2c1ncn2[C@@H]1O[C@H](COP(=O)(O)OP(=O)(O)O)[C@@H](O)[C@H]1O [ADP]
X-ray crystal structure (KaiCRS-Δcoil): contained three monomers in the asymmetric unit, with ADP present in all active sites
32P phosphoryl transfer from phosphoserine to ADP, TLC autoradiography (KaiCRS): KaiCRS undergoes dephosphorylation through an ATP synthase mechanism

B1: KaiB from Synechococcus elongatus PCC 7942 (KaiBSE) (natural protein, UniProt Q79PF5 1-102, looked up)
chain: MSPRKTYILKLYVAGNTPNSVRALKTLKNILEVEFQGVYALKVIDVLKNPQLAEEDKILATPTLAKVLPLPVRRIIGDLSDREKVLIGLDLLYGELQDSDDF
notes: KaiB of Synechococcus elongatus PCC 7942
stoichiometry N [16]: 4

B2: KaiC from Synechococcus elongatus PCC 7942 (KaiCSE) (enzyme)
chain: MTSAEMTSPNNNSEHQAIAKMRTMIEGFDDISHGGLPIGRSTLVSGTSGTGKTLFSIQFLYNGIIEFDEPGVFVTFEETPQDIIKNARSFGWDLAKLVDEGKLFILDASPDPEGQEVVGGFDLSALIERINYAIQKYRARRVSIDSVTSVFQQYDASSVVRRELFRLVARLKQIGATTVMTTERIEEYGPIARYGVEEFVSDNVVILRNVLEGERRRRTLEILKLRGTSHMKGEYPFTITDHGINIFPLGAMRLTQRSSNVRVSSGVVRLDEMCGGGFFKDSIILATGATGTGKTLLVSRFVENACANKERAILFAYEESRAQLLRNAYSWGMDFEEMERQNLLKIVCAYPESAGLEDHLQIIKSEINDFKPARIAIDSLSALARGVSNNAFRQFVIGVTGYAKQEEITGLFTNTSDQFMGAHSITDSHISTITDTIILLQYVEIRGEMSRAINVFKMRGSWHDKAIREFMISDKGPDIKDSFRNFERIISGSPTRITVDEKSELSRIVRGVQEKGPES
notes: KaiC of Synechococcus elongatus PCC 7942; source: plasmid a gift from E. K. O'Shea
stoichiometry N [17]: 6
